Measurements published in patent publication US20230086530A1.

Assays:
[1] = target: human CD47 on the cell membrane surface of CD47 positive tumor cells (Raji, NUGC-4, Jurkat) (human) (UniProt Q08722); assay: FACS on Raji cells, 0.05 µg/mL
[2] = target: human CD47 on the cell membrane surface of CD47 positive tumor cells (Raji, NUGC-4, Jurkat) (human) (UniProt Q08722); assay: FACS on Raji cells, 0.5 µg/mL

Sequence of human CD47 on the cell membrane surface of CD47 positive tumor cells (Raji, NUGC-4, Jurkat) (human) (Q08722 19-323): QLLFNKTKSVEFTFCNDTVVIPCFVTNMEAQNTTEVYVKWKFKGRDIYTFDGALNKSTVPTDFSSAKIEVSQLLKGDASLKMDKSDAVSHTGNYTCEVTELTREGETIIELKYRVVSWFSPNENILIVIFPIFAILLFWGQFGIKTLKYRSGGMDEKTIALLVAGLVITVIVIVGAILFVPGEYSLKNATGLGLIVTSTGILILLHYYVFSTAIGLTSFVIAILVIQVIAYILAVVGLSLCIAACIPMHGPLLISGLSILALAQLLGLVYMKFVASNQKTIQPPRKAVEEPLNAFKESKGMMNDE

Which Mean fluorescence intensity (multiple) [1] does the source give for isotype control antibody here?
The Mean fluorescence intensity (multiple) was 1 fold.

What about the Mean fluorescence intensity (multiple) [2] of the same substance?
Its Mean fluorescence intensity (multiple) is 1 fold.
